Assay results as given in article PMC3359993, “Polydnavirus Ank Proteins Bind NF-κB Homodimers and Inhibit Processing of Relish” (PLoS Pathogens, 2012).

Tests used:
[1] = molecular target: T1, Dif, truncated (RHD, NLS and 20 additional C-terminal residues), StrepTagII-tagged (Drosophila melanogaster); assay: SPR; Biacore 3000, room temperature; Dif immobilised on CM5 by amine coupling, Cactus as analyte (Table 1); kinetic titration; 10 mM HEPES pH 7.4, 150 mM NaCl, 3.4 mM EDTA, 0.005% P20; 1:1 Langmuir fit; conditions: both partners purified
T1 chain: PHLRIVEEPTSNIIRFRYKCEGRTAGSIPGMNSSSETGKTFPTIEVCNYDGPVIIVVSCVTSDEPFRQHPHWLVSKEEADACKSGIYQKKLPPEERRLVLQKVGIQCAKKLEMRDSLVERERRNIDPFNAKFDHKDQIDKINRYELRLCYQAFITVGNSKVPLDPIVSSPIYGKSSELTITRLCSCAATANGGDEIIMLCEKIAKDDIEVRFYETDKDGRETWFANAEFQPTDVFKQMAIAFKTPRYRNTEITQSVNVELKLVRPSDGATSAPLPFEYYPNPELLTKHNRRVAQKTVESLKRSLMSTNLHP

[2] = molecular target: T2, Rel-49, the C-terminal IkB domain of Relish, N-terminal StrepTagII and C-terminal His tag (Drosophila melanogaster); assay: SPR; Biacore 3000, room temperature; IkB or Ank immobilised on CM5 by amine coupling (about 5500 RU); Rel homodimer as analyte, kinetic titration, five doubling injections (typically 160 nM to 2.56 uM), 60 or 90 s, 30 uL/min; 10 mM HEPES pH 7.4, 150 mM NaCl, 3.4 mM EDTA, 0.005% P20; 1:1 Langmuir fit; conditions: both partners purified
T2 construct: Rel-49, the C-terminal IkB fragment that is left after cleavage of compound Relish (Rel-110), Drosophila, GenBank AAF54333; Cloned without a stop codon into pET51-EK-LIC; source: E. coli BL21 (DE3), purified
T2 sequence (Q94527 whole entry, looked up): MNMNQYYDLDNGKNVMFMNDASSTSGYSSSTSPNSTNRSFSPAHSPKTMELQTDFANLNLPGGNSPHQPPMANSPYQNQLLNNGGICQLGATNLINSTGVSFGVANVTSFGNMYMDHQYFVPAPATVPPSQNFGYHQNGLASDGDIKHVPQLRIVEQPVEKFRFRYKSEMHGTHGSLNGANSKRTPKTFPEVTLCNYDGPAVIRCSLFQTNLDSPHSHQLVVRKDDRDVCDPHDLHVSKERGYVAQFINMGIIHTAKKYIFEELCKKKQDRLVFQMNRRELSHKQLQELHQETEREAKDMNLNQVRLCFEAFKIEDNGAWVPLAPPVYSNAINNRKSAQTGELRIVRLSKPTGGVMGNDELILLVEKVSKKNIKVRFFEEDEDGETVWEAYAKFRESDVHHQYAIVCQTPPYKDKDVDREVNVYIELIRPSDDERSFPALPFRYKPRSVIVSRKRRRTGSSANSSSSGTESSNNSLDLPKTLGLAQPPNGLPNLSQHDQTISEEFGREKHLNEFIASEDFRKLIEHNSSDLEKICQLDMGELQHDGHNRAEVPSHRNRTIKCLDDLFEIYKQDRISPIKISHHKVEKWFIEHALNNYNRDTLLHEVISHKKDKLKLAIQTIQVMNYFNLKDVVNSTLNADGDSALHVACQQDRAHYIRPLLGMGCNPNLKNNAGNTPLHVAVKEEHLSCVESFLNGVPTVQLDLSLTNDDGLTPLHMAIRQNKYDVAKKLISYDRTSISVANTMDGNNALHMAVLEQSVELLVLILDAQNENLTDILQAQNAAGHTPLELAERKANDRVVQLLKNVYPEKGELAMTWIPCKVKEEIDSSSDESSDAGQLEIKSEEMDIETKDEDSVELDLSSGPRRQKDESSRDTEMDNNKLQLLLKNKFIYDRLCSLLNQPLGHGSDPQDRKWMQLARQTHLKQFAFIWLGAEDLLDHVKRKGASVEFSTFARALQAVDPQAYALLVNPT

[3] = molecular target: T3, Ank-H4 of Microplitis demolitor bracovirus, full length, N-terminal His tag (Microplitis demolitor bracovirus (MdBV)); assay: as above; conditions: both partners purified
T3 construct: Ank-H4, Microplitis demolitor bracovirus (MdBV), GenBank AY875685; consists of only an ankyrin repeat domain; amplified from MdBV genomic DNA; pET-30-EK-LIC; source: E. coli BL21 (DE3), purified (Ni-NTA); not shown: His6, N-terminal, kept
T3 sequence (Q5I144 whole entry, the tested form may be a part): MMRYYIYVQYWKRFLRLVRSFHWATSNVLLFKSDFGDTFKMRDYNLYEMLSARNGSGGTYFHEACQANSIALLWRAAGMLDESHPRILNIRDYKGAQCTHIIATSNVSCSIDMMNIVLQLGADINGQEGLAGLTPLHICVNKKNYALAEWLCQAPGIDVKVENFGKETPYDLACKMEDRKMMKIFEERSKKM

[4] = molecular target: T4, Cactus, truncated form consisting of its ankyrin repeat domain, N-terminal His tag (Drosophila melanogaster); assay: as above; conditions: both partners purified
T4 chain: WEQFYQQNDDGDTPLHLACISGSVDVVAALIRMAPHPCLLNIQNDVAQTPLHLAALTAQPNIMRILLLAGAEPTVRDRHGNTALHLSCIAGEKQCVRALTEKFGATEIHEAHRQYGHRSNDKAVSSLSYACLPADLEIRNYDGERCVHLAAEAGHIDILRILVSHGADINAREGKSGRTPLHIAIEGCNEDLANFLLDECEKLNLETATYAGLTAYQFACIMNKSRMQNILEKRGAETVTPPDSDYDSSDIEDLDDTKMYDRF

[5] = molecular target: T1, Dif, truncated (RHD, NLS and 20 …); assay: SEC; gel filtration of each purified recombinant protein, compared with molecular mass standards; conditions: both partners purified
[6] = molecular target: the molecule itself; assay: as above

B1: Cactus, truncated form consisting of its ankyrin repeat domain, N-terminal His tag (domain or fragment)
chain: WEQFYQQNDDGDTPLHLACISGSVDVVAALIRMAPHPCLLNIQNDVAQTPLHLAALTAQPNIMRILLLAGAEPTVRDRHGNTALHLSCIAGEKQCVRALTEKFGATEIHEAHRQYGHRSNDKAVSSLSYACLPADLEIRNYDGERCVHLAAEAGHIDILRILVSHGADINAREGKSGRTPLHIAIEGCNEDLANFLLDECEKLNLETATYAGLTAYQFACIMNKSRMQNILEKRGAETVTPPDSDYDSSDIEDLDDTKMYDRF
modifications: Limits come from the Table S1 cactus primers. The forward primer, after the LIC extension …, encodes WEQFYQQN. The reverse primer encodes DTKMYDRF followed by a stop. Positions were …
Kd [1]: 110 nM | koff [1]: 0.00578 s⁻¹ | kon [1]: 52500 M⁻¹ s⁻¹

B2: Dif, truncated (RHD, NLS and 20 additional C-terminal residues), StrepTagII-tagged (domain or fragment)
chain: PHLRIVEEPTSNIIRFRYKCEGRTAGSIPGMNSSSETGKTFPTIEVCNYDGPVIIVVSCVTSDEPFRQHPHWLVSKEEADACKSGIYQKKLPPEERRLVLQKVGIQCAKKLEMRDSLVERERRNIDPFNAKFDHKDQIDKINRYELRLCYQAFITVGNSKVPLDPIVSSPIYGKSSELTITRLCSCAATANGGDEIIMLCEKIAKDDIEVRFYETDKDGRETWFANAEFQPTDVFKQMAIAFKTPRYRNTEITQSVNVELKLVRPSDGATSAPLPFEYYPNPELLTKHNRRVAQKTVESLKRSLMSTNLHP
modifications: homodimer by gel filtration; StrepTagII left out. Limits: RHD start 78 and NLS end 368 from UniProt features, plus 20 residues; exact limits are only in Figure 1A
Kd [2]: 1840 nM | koff [2]: 0.000966 s⁻¹ | kon [2]: 524 M⁻¹ s⁻¹ | Kd [3]: 581 nM | koff [3]: 0.00384 s⁻¹ | kon [3]: 6620 M⁻¹ s⁻¹

B3: Relish, truncated (RHD, NLS and 20 additional C-terminal residues), StrepTagII-tagged (domain or fragment)
chain: KHVPQLRIVEQPVEKFRFRYKSEMHGTHGSLNGANSKRTPKTFPEVTLCNYDGPAVIRCSLFQTNLDSPHSHQLVVRKDDRDVCDPHDLHVSKERGYVAQFINMGIIHTAKKYIFEELCKKKQDRLVFQMNRRELSHKQLQELHQETEREAKDMNLNQVRLCFEAFKIEDNGAWVPLAPPVYSNAINNRKSAQTGELRIVRLSKPTGGVMGNDELILLVEKVSKKNIKVRFFEEDEDGETVWEAYAKFRESDVHHQYAIVCQTPPYKDKDVDREVNVYIELIRPSDDERSFPALPFRYKPRSVIVSRKRRRTGSSANSSSSGTESSNNSLD
modifications: Limits come from the Table S1 cactus primers. The forward primer, after the LIC extension …, encodes WEQFYQQN. The reverse primer encodes DTKMYDRF followed by a stop. Positions were …
Kd [4]: 2190 nM | koff [4]: 0.00241 s⁻¹ | kon [4]: 1100 M⁻¹ s⁻¹

B4: Dif, truncated (RHD, NLS and 20 additional C-terminal residues), StrepTagII-tagged (domain or fragment)
chain: PHLRIVEEPTSNIIRFRYKCEGRTAGSIPGMNSSSETGKTFPTIEVCNYDGPVIIVVSCVTSDEPFRQHPHWLVSKEEADACKSGIYQKKLPPEERRLVLQKVGIQCAKKLEMRDSLVERERRNIDPFNAKFDHKDQIDKINRYELRLCYQAFITVGNSKVPLDPIVSSPIYGKSSELTITRLCSCAATANGGDEIIMLCEKIAKDDIEVRFYETDKDGRETWFANAEFQPTDVFKQMAIAFKTPRYRNTEITQSVNVELKLVRPSDGATSAPLPFEYYPNPELLTKHNRRVAQKTVESLKRSLMSTNLHP
modifications: homodimer by gel filtration; StrepTagII left out. Limits: RHD start 78 and NLS end 368 from UniProt features, plus 20 residues; exact limits are only in Figure 1A / homodimer by gel filtration …
stoichiometry N [5]: 2

B5: Dif, truncated (RHD, NLS and 20 additional C-terminal residues), N-terminal thioredoxin fusion (domain or fragment)
chain: PHLRIVEEPTSNIIRFRYKCEGRTAGSIPGMNSSSETGKTFPTIEVCNYDGPVIIVVSCVTSDEPFRQHPHWLVSKEEADACKSGIYQKKLPPEERRLVLQKVGIQCAKKLEMRDSLVERERRNIDPFNAKFDHKDQIDKINRYELRLCYQAFITVGNSKVPLDPIVSSPIYGKSSELTITRLCSCAATANGGDEIIMLCEKIAKDDIEVRFYETDKDGRETWFANAEFQPTDVFKQMAIAFKTPRYRNTEITQSVNVELKLVRPSDGATSAPLPFEYYPNPELLTKHNRRVAQKTVESLKRSLMSTNLHPSKQV
stoichiometry N [6]: 2

B6: Dorsal, truncated (RHD, NLS and 20 additional C-terminal residues), StrepTagII-tagged (domain or fragment)
chain: PYVKITEQPAGKALRFRYECEGRSAGSIPGVNSTPENKTYPTIEIVGYKGRAVVVVSCVTKDTPYRPHPHNLVGKEGCKKGVCTLEINSETMRAVFSNLGIQCVKKKDIEAALKAREEIRVDPFKTGFSHRFQPSSIDLNSVRLCFQVFMESEQKGRFTSPLPPVVSEPIFDKKAMSDLVICRLCSCSATVFGNTQIILLCEKVAKEDISVRFFEEKNGQSVWEAFGDFQHTDVHKQTAITFKTPRYHTLDITEPAKVFIQLRRPSDGVTSEALPFEYVPMDSDPAHLRRKRQKTGGDPMHLLLQQQQKQQLQN
modifications: Limits come from the Table S1 cactus primers. The forward primer, after the LIC extension …, encodes WEQFYQQN. The reverse primer encodes DTKMYDRF followed by a stop. Positions were …
Kd [4]: 195 nM | koff [4]: 0.00193 s⁻¹ | kon [4]: 9890 M⁻¹ s⁻¹
